Details: Hordeum vulgare; pH 6.25; 25 °C; GdnHCl; Fluorescence; MES 50 mM; reversible: yes; whole UniProt chain shown

B1: Subtilisin-chymotrypsin inhibitor-2A wild type, P01053 (protein)
chain: MSSVEKKPEGVNTGAGDRHNLKTEWPELVGKSVEEAKKVILQDKPEAQIIVLPVGTIVTMEYRIDRVRLFVDKLDNIAQVPRVG
- denaturant m value: 1.9 kcal/mol/M
- denaturant midpoint (higher = more stable): 4 M
- unfolding free energy: 7.6 kcal/mol

From FireProtDB (doi:10.1006/jmbi.1995.0616)
